Data taken from the supplement of paper PMC10126150.
± gives the standard deviation of the averaged measurements.

System: ATP
Assay: switch fluorescence ratio, 500 uM ATP over buffer (Cy3 cluster intensity, sum of 5 cycles each) (fold (ratio)); higher = stronger signal-on switching upon ATP binding; sequences stand for … in TCGTCGGCAGCGTCAGATGTGTATAAGAGACAGTTTTTTTTTTTTTTTTTTTTTTTTT…TC
Details: aptamer strand: ATP DNA aptamer (quencher-CACCTGGGGGAGTATTGCGGAGGAAGG + anchor), 100 nM annealed; ATP concentration: 500 uM
Outline: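 Five buffer/ATP imaging cycles were run on Cy3-labelled switching-strand clusters on a modified Illumina MiSeq flow-cell, with NaOH stripping and re-annealing between cycles. In each cycle, clusters annealed to 100 nM quencher-labelled ATP aptamer were imaged in selection buffer, then after 15 min with 500 uM ATP at 22 °C. Per cluster, the fluorescence ratio is summed target-cycle over summed buffer-cycle Cy3 intensity, averaged per switch-domain sequence. Only clusters within 100-1000 RFU were kept.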
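Also: ATP exposure 15 min at 22 °C before imaging.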

Sequence | switch fluorescence ratio
AAGGCTATGG | 0.988 ± 0.027
AAGGCTCTTG | 0.986 ± 0.018
AAGGCTGGGG | 0.9781 ± 0.0058
AAGGCTGGGT | 1.02 ± 0.023
AAGGCTTCTT | 1 ± 0.015
AAGGGAAGGC | 1 ± 0.018
AAGGGAATAG | 1.02 ± 0.014
AAGGGACGGG | 1.01 ± 0.027
AAGGGAGGCT | 1.01 ± 0.066
AAGGGATTGT | 1.18 ± 0.26
AAGGGCAGAA | 0.973 ± 0.03
AAGGGCAGTA | 0.998 ± 0.01
AAGGGCGGAT | 1.02 ± 0.021
AAGGGCGGGA | 1.02 ± 0.086
AAGGGCTAGG | 0.999 ± 0.014
AAGGGCTCTG | 1.01 ± 0.046
AAGGGCTGGT | 0.99 ± 0.022
AAGGGGAAAA | 0.983 ± 0.02
AAGGGGAAGG | 0.996 ± 0.012
AAGGGGAATA | 1.01 ± 0.035
AAGGGGAGGA | 0.989 ± 0.016
AAGGGGAGGC | 0.971 ± 0.041
AAGGGGATAT | 1.03 ± 0.044
AAGGGGATTG | 0.986 ± 0.042
AAGGGGCAGC | 0.9903 ± 0.0069

Sequence | switch fluorescence ratio
AAGGGGCCCC | 1.31 ± 0.49
AAGGGGCCGG | 1.0099 ± 8.3e-05
AAGGGGCGCA | 0.969 ± 0.045
AAGGGGGATC | 1 ± 0.032
AAGGGGGCCC | 0.99 ± 0.021
AAGGGGGCGA | 0.982 ± 0.019
AAGGGGGGAT | 0.974 ± 0.02
AAGGGGGGCC | 1.01 ± 0.089
AAGGGGGGTT | 1.01 ± 0.036
AAGGGGGTAC | 1.38 ± 0.77
AAGGGGGTAG | 1.01 ± 0.032
AAGGGGGTTG | 0.975 ± 0.044
AAGGGGTAAT | 0.967 ± 0.045
AAGGGGTCCA | 0.991 ± 0.029
AAGGGGTCTA | 1.002 ± 0.0085
AAGGGGTGGT | 0.989 ± 0.032
AAGGGGTGTA | 0.985 ± 0.04
AAGGGTATCC | 1.02 ± 0.013
AAGGGTCGCG | 1.02 ± 0.055
AAGGGTGTGT | 0.961 ± 0.032
AAGGGTGTTT | 1.01 ± 0.034
AAGGGTTACG | 1 ± 0.025
AAGGGTTGGG | 1.06 ± 0.058
AAGGTAAGGG | 1.01 ± 0.041
AAGGTACGAA | 1.04 ± 0.011

Sequence | switch fluorescence ratio
AAGGTATCAT | 0.978 ± 0.018
AAGGTATCGG | 0.987 ± 0.037
AAGGTATGCT | 0.982 ± 0.019
AAGGTATTAA | 1 ± 0.036
AAGGTATTGC | 0.9947 ± 0.0061
AAGGTCGGTA | 1.001 ± 0.0024
AAGGTCGTCG | 0.9834 ± 0.0076
AAGGTGAATC | 1.04 ± 0.019
AAGGTGGCCC | 1.03 ± 0.023
AAGGTGTGCC | 1.01 ± 0.03
AAGGTTAGTT | 1.003 ± 0.0083
AAGGTTATGT | 0.991 ± 0.02
AAGGTTATTA | 1 ± 0.023
AAGGTTGCGA | 0.9571 ± 0.0024
AAGGTTGGGG | 0.994 ± 0.017
AAGGTTTAAG | 0.999 ± 0.011
AAGGTTTCAG | 0.9758 ± 0.0079
AAGGTTTTTC | 1.01 ± 0.015
AAGTAAGTGG | 1.03 ± 0.042
AAGTAATAGG | 1.03 ± 0.019
AAGTAATTTC | 1.02 ± 0.013
AAGTACGGAG | 1.04 ± 0.052
AAGTACGTTG | 1.12 ± 0.057
AAGTAGGAGC | 1.06 ± 0.19
AAGTAGGCTC | 0.991 ± 0.007

Sequence | switch fluorescence ratio
AAGTAGGGGG | 0.951 ± 0.016
AAGTAGTAGT | 1.007 ± 0.0043
AAGTAGTCGA | 0.9838 ± 0.0041
AAGTAGTTAC | 1.05 ± 0.042
AAGTATAGCA | 1.03 ± 0.014
AAGTATAGTT | 1.04 ± 0.056
AAGTATCCGT | 0.986 ± 0.048
AAGTATGTAT | 1.02 ± 0.041
AAGTATTATC | 1.01 ± 0.019
AAGTCAATGT | 1.015 ± 0.0027
AAGTCACATC | 1.22 ± 0.19
AAGTCAGGAG | 1.05 ± 0.07
AAGTCCCGCT | 1.12 ± 0.17
AAGTCGGCTG | 0.9757 ± 0.002
AAGTCGGTTA | 1 ± 0.02
AAGTCTTGTT | 0.97636 ± 0.00051
AAGTCTTTTC | 0.975 ± 0.036
AAGTGAAAGC | 1.01 ± 0.068
AAGTGAAGCT | 1 ± 0.015
AAGTGAGTAG | 1.004 ± 0.01
AAGTGATTGG | 0.973 ± 0.011
AAGTGCAAAC | 1.53 ± 0.73
AAGTGCCCCA | 1.05 ± 0.016
AAGTGCGGCC | 0.987 ± 0.011
AAGTGGGCCT | 0.981 ± 0.038

Sequence | switch fluorescence ratio
AAGTGGGGCG | 1.02 ± 0.034
AAGTGGGGGG | 1 ± 0.024
AAGTGTATCA | 0.983 ± 0.02
AAGTGTGCGA | 0.997 ± 0.028
AAGTGTTTTA | 1.001 ± 0.0045
AAGTTAAAAT | 1.012 ± 0.0074
AAGTTAACTT | 0.9883 ± 0.0087
AAGTTAATGT | 1 ± 0.022
AAGTTAGGGG | 0.9756 ± 0.0084
AAGTTCAGTT | 1.01 ± 0.016
AAGTTCGAGA | 1.002 ± 0.0016
AAGTTCGGGG | 1.05 ± 0.088
AAGTTCGTGC | 1.02 ± 0.058
AAGTTGAATT | 0.99 ± 0.029
AAGTTGAGGG | 0.975 ± 0.035
AAGTTGCGCT | 1 ± 0.034
AAGTTGCGGG | 0.964 ± 0.078
AAGTTGCGTT | 1.01 ± 0.015
AAGTTGCTGG | 0.985 ± 0.019
AAGTTGGATG | 0.977 ± 0.019
AAGTTGGGGA | 0.996 ± 0.021
AAGTTGTCCG | 0.964 ± 0.0091
AAGTTGTCTT | 0.999 ± 0.027
AAGTTGTGAA | 1.01 ± 0.017
AAGTTGTGTA | 0.993 ± 0.031

Sequence | switch fluorescence ratio
AAGTTTAATA | 0.943 ± 0.034
AAGTTTACAT | 1.01 ± 0.026
AAGTTTATGG | 0.9798 ± 0.0057
AAGTTTCGCG | 0.976 ± 0.027
AAGTTTGACC | 0.978 ± 0.032
AAGTTTGTCA | 0.955 ± 0.017
AAGTTTGTGG | 0.973 ± 0.047
AAGTTTTCCG | 0.964 ± 0.062
AAGTTTTGGC | 1 ± 0.035
AAGTTTTGGG | 0.974 ± 0.02
AAGTTTTTGG | 1.01 ± 0.03
AATAAAATTT | 1.04 ± 0.022
AATAAACAAA | 0.978 ± 0.013
AATAAAGGGT | 1.02 ± 0.027
AATAAGATGT | 0.999 ± 0.066
AATAAGCTGG | 0.984 ± 0.033
AATAAGGT | 1.003 ± 0.0056
AATAATAAAC | 1.006 ± 0.0047
AATAATCTTT | 1.02 ± 0.013
AATAATGGAA | 0.987 ± 0.015
AATAATGGTT | 1.01 ± 0.013
AATAATGTTC | 0.9805 ± 0.0071
AATAATTAAA | 0.9861 ± 0.0097
AATACCCGGG | 1.021 ± 0.0045
AATACGGTCT | 1 ± 0.06

Sequence | switch fluorescence ratio
AATACTACAG | 1.08 ± 0.024
AATACTCACG | 1.5 ± 0.058
AATACTGTGC | 0.947 ± 0.064
AATAGAATAC | 1.163 ± 0.0021
AATAGAGGAG | 1.012 ± 0.007
AATAGATAGT | 0.9929 ± 0.0055
AATAGATTGC | 1.003 ± 0.0092
AATAGGGGAA | 1.01 ± 0.042
AATAGGGGAC | 1.01 ± 0.016
AATAGGGGTT | 0.984 ± 0.03
AATAGTAAAT | 0.999 ± 0.012
AATAGTAGCG | 1.01 ± 0.054
AATAGTATCT | 1.01 ± 0.029
AATAGTGACG | 1.14 ± 0.28
AATAGTTTG | 1.01 ± 0.017
AATAGTTTTT | 0.986 ± 0.055
AATATAAATA | 1.019 ± 0.0072
AATATAGGGG | 0.996 ± 0.017
AATATATGGA | 1 ± 0.023
AATATATGGG | 0.973 ± 0.021
AATATCACGG | 1.05 ± 0.029
AATATCTGTG | 1.01 ± 0.016
AATATGATAA | 1.01 ± 0.053
AATATGATGT | 1.05 ± 0.04
AATATGGGGT | 1.01 ± 0.014

Sequence | switch fluorescence ratio
AATATGTATG | 0.996 ± 0.024
AATATGTGAG | 0.995 ± 0.028
AATATGTTGT | 0.98 ± 0.037
AATATTAGCC | 0.957 ± 0.02
AATATTATGG | 1 ± 0.016
AATATTGGGG | 0.981 ± 0.029
AATATTGGTG | 1.0416 ± 0.001
AATATTGTCG | 0.994 ± 0.034
AATATTGTCT | 0.96 ± 0.013
AATATTTGGT | 0.974 ± 0.019
AATCAAGGCG | 1.03 ± 0.1
AATCAATTGT | 0.978 ± 0.053
AATCAGAGTG | 1.01 ± 0.03
AATCAGCGTC | 0.986 ± 0.023
AATCAGGGGG | 1.01 ± 0.04
AATCAGTGGA | 0.974 ± 0.038
AATCATCGTG | 0.9646 ± 0.0043
AATCATGGAG | 0.9891 ± 0.004
AATCATGGT | 0.978 ± 0.019
AATCATTATT | 1.01 ± 0.017
AATCATTGTT | 1.02 ± 0.026
AATCCAGGGC | 1.05 ± 0.056
AATCCTGGAG | 1.02 ± 0.011
AATCGAGGGG | 0.991 ± 0.03
AATCGAGTTG | 0.985 ± 0.013
